The source of these data is the DeepSol protein solubility set.

This series is described as follows: soluble on expression in E. coli; label from the status in PepcDB or PDB records.
“MSVEAAKNARELLLKEYRAVLSTHSKKWPGFPFGSVVPYCLDAEGRPLILISRIAQHTHNLQADPRCSMLVGERGAEDIQAVGRLTLLAEARQLAEEEVAAAAERYYRYFPESADYHRVHDFDFWVLQPVQWRFIGGFGAIHWLAAERVPLANPFAGEAERGMVEHMNSDHAAAIAHYVELAGLPAHAAAQLAGIDTEGFHLRIGQGLHWLPFPAACGNPGAVRQALVQLARAERWPTVEPEQG”: the “soluble on expression in E. coli” value is reported as “soluble”.

“MSVETILVVGGGISGITTAVEAAEVGYNTVLVEKKPYLGGRAAQLNKYFPKLCPPYCGLEMNFRRIKPNPKITVYTMTEVESVSGQEGNYSVRLKVSPRFVNEKCTACNACAEACPVERPNEFNFGMDKTKAAYLPHVLSYPMRYVIDRDACKDNSCDKCVKACKYNAIDLNMKPQTIEMKVGSIVYATGWNPYDATRMDNLGFGRVKNVITNMMMERLAAPNGPTGGKLLRPSDNKEVKKVVFVQCAGSRDENHLNYCSSICCMASLKQATYVRERIPDSQVVVAYIDLRAPGKYEEFLNKVEADANVKLVKGKVAKIEEDKATGGVILEFEDVEGGGKRHEHADMAVLATGMEPCVKANSMLSFEENGFINGGSAAGIYSTGVAKRPSDVTTAIQDATGMALKSIQSLVRSLEHHHHHH”: the “soluble on expression in E. coli” value was “not soluble”.

Consider “MSVIKIEKALKLDKVIFVDVRTEGEYEEDHILNAINMPLFKNNEHNEVGTIYKMQGKHEAIQKGFDYVSYKLKDIYLQAAELALNYDNIVIYCARGGMRSGSIVNLLSSLGVNVYQLEGGYKAYRNFVLEYLRHVMDTKNFVSVHGLTGTGKTDLLHLLDENGIDVLDLEGIAKNSGSTFGFITFDKKPPSQKNFETKLFESIFFSKENYIFVESESKRVGSVTVPNEIFEAMTREGHHILLECDIENRVDRLCRDYIYDKDEGNILILKECINKFRKRLGNKVVDDYIDLLESGEYKELVKRYLLEYYDPLYMHSVEKYKYSKIINFNDTQKALEDVIDLYESILEGESEC”, for which the “soluble on expression in E. coli” value is listed as “not soluble”.

Take “MSVIYQTTITRIGQSAKEALGEQMLITFREGAPADIEEFCFIHCHGELTGALQPGARCELGQHCYPVTAVGSVAEQNLRELGHITLRFDGLREAEFPGTVHVAGPVPDDIAPGCILTFVA”: the “soluble on expression in E. coli” value is “not soluble”. As to “MSVKVAFIRHHNLWIKVDGKEIQITKGEYITGPKWSYDGEWLAYVKGKKQSILELYRLKDGKKVTPFHSEASNYQWSPTENIIAFIFTGTLNTFDVEKKNADFENVSAGVGDYAWYPDGKNFLVSSEAHLLPTGWTGAQLYEVQKDAHMNPHKMKHLYALPNEHDDFLALVASGFKWSPDQKWISFLAVPTASWSADSNTLCLVRADGSRFEKVDQMLLNAQWFQWAPSKNILAYIEGSGRVALENKHLKVKELPALQQNIFTPKGYVDWDFVWKNDRVIIVSRAKEAGIETPPEKRPLPSLYEVDSTSNAQHQITKKTNKQGDYHPIFMKKSNQLIWIRSDRKKADVWLAHKDRKQEKKWIENIDVPAWYYEKWNWGNVISVKEELEHHHHHH”, the “soluble on expression in E. coli” value is reported as “soluble”.

On to “MSVSGLKAELKFLASIFDKNHERFRIVSWKLDELHCQFLVPQQGSPHSLPPPLTLHCNITESYPSSSPIWFVDSEDPNLTSVLERLEDTKNNNLLRQQLKWLICELCSLYNLPKHLDVEMLDQPLPTGQNGTTEEVTSEEEEEEEEMAEDIEDLDHYEMKEEEPISGKKSEDEGIEKENLAILEKIRKTQRQDHLNGAVSGSVQASDRLMKELRDIYRSQSYKTGIYSVELINDSLYDWHVKLQKVDPDSPLHSDLQILKEKEGIEYILLNFSFKDNFPFDPPFVRVVLPVLSGGYVLGGGALCMELLTKQGWSSAYSIESVIMQINATLVKGKARVQFGANKNQYNLARAQQSYNSIVQIHEKNGWYTPPKEDG”, for which the “soluble on expression in E. coli” value is given as “soluble”. With “MSVSKKLFSTAVRGKSWWSHVEMGPPDAILGVTEAFKADSNPKKINLGVGAYRDDQGKPFVLPSVKEAERQVIAANLDKEYAGIVGLPEFTKLSAQLALGENSDVIKNKRIFTTQSISGTGALRIGSEFLSKYAKTKVIYQPTPTWGNHVPIFKFAGVDVKQYRYYDKSTCGFDETGALADIAQIPEGSTILLHACAHNPTGVDPSRDQWKKISDIVKKRNLFVFFDMAYQGFASGDVDNDAFAVRYFVEQGHNIVLSQSFAKNMGLYGERVGAFSVVTSDADEAARVASQVKILIRPLYSNPPVHGARIASRILADPALNKQWLGDVKLMADRIITMRTTLKDLLAKEGSTRNWEHITNQIGMFCFTGINPQQVEKLIKEHSVYLTKDGRISVAGISSNNVAYLAHALHQVTK”, the “soluble on expression in E. coli” value was “not soluble”.

As for “MSVSLLRGRTVRRVLSVLVVAGLLGAGATGCSNDAGAKTENTVDASPTPTNTPTDGEGDSEGAEEPVEDTPAEPEQRPVPEEPEAMKTGDKAGAIAAATFFVEVIEYDATQPDSRFFSKYAYEECGWCNEYKKTHEQQANSNFSLINTNINLEDIKTASFAGEGSVLWSVPINANVSSHYKSKKDDEVVETEHTLTGNMLVGYRNGQWLLVEGDLLVK”, the “soluble on expression in E. coli” value is given as “not soluble”. Turning to “MSVSNMPPIDRAEQSTAHEIQQAKVIDLNDRVLNLDNPDDKMISAFANYAVQTENWQQNALQALTSDKKGLTPEKLLVLQDHVLNYNVEVSLVGTLARKIVAAVETLTRS”, the “soluble on expression in E. coli” value was “soluble”. For “MSVTFPSSGCPSFFNIFYEEGIVMKLTIYYDGQFWVGVVEVVDNGKLRAFRHLFGKEPRDSEVLEFVHNQLLNMMAQAEQEGVRLQGRRQKKINPKRLQRQVSKELKNAGVTSKAQEAIKLELEARKQKKKQIMKEQREHVKEQRYMLKKQKAKKKHRGKLEHHHHHH”, the “soluble on expression in E. coli” value is given as “soluble”. Take “MSVVDMSAEKMTKLEENLQRAVALKKTVDRWRNFHIHCMWQTTLDQRRNLFAALRMKDTKEQELALSNKQLLVVRQAALHELFEKEYQQYQQELNQMGKAFYEERL”: the “soluble on expression in E. coli” value was “not soluble”.

“MSYLLALDAGTGSIRAVIFDLNGRQLAVGQAEWKHLSVDNVPGSMEFDLTTNWQLACQCIRQALDAARLSAADIQSVACCSMREGIVLYDRNGEAIWACANVDARASREVAELKEIHDFRFESEVYEVSGQTLALSAMPRLLWLAHHRPDIYRKAATITMISDWLAAKLSGELAVDPSNAGTTGMLDLFSRDWRPALLDMAGLRADMLSPVKETGTLLGAVTEAAAQQSGLRAGTPVVMGGGD”: the “soluble on expression in E. coli” value is reported as “not soluble”. In the case of “MSYQNLVSEAGLTQKLLIHGDKELFQHELKTIFARNWLFLTHDSLIPSPGDYVKAKMGVDEVIVSRQNDGSVRAFLNVCRHRGKTLVHAEAGNAKGFVCGYHGWGYGSNGELQSVPFEKELYGDAIKKKCLGLKEVPRIESFHGFIYGCFDAEAPPLIDYLGDAAWYLEPTFKYSGGLELVGPPGKVVVKANWKSFAENFVGDGYHVGWTHAAALRAGQSVFSSIAGNAKLPPEGAGLQMTSKYGSGMGVFWGYYSGNFSADMIPDLMAFGAAKQEKLAKEIGDVRARIYRSFLNGTIFPNNSFLTGSAAFRVWNPIDENTTEVWTYAFVEKDMPEDLKRRVADAVQRSIGPAGFWESDDNENMETMSQNGKKYQSSNIDQIASLGFGKDVYGDECYPGVVGKSAIGETSYRGFYRAYQAHISSSNWAEFENASRNWHIEHTKTTDR”, the “soluble on expression in E. coli” value is on record as “soluble”.

For the sequence “MTAFEEFGIIPELSDALSSLNWTLPTAVQSEAIPAILGGADALIAAETGSGKTGAFSLPIAQIVWERRKSAEKSQNSGQKPENSREFQLNREDRDVSLQIDKTGLNCESRVAKEWHGARATAGLYGNGKYYYEVTVTRDGLCRVGWATLSGSLKIGTDFESFGYGGTGKKSFGKKFDDYGTSFTTNDVLGCFLDLDELKIWWSKNGVQFPVAYQIDKKFKTAATCLYPAILCQNSGLGVNFGGSAAFKYPPGTQYVAVAQAEDGNLKWWSAAEQLSIDSSTPLCVILEPTRELVQQTFQNIQTFASVLDSPKIRCVTLAAGENMNQILRTLETGCDIVVGTPSRVFDLIHTGKLATKNLQFVVIDEIDQFLAGKNNCAHQIESIFRVLPLVAQDGTRRQVIACSATLHNFEVCRFADRHMSFPQWIDLKGADCVSADVHHVVCHVDASEDKQWIRQMHQQVHLEDDHVHDGDQIRPGTTDKDTISLGTKILKGIYVVRAIHALQMDKAIVFCRTKQQCDHMEHFLQQNNLSAACLHGDRSAEERQSSLEGFKKGIIRFLVCSDVVARGLDVQGVPFVISVTLPDEKSMYVHRIGRVGRAERMGLSISLVSEYEEKAWYHKCRSRGVNCTNTKDISKGGCTIWLQEKKMLGEIEEHLGATISTVDSDFNVPVDEFDGKVVYGERRTGGANFDTHVLQLASSASQLADLETKMQLEYLNNNRHVFEIHSM”, the “soluble on expression in E. coli” value is given as “not soluble”. As for “MTAFFCTLQDDRIISLDWQEGADIDLIYLAPGRTLPSQKGAVSHVLQGKDLRKGWSIDHGELTVGVSSLAVAVKNANGDVLGAVAVAGLSASVESKIDTIRDTLKETACAIA”, the “soluble on expression in E. coli” value is recorded as “not soluble”. For “MTAINFNSIYTTYYRRAFLFTLSYVHNDLVAEDIVSEAIIYLWELSKKQEIPSIEAVLITYIRSKSLNYLKHLQVQENVYQNLTDKGQRELEIRISTLEACDPKEVMSEELRSKVKTLLAGMPEKTRIAFISDRLDGKSHKEIAEELGISVKGVEYHISKAVKLLRDNLKEYAPFLIFFI”, the “soluble on expression in E. coli” value is on record as “not soluble”.

As for “MTAISCSPRPRYASRMPVLSKTVEVTADAASIMAIVADIERYPEWNEGVKGAWVLARYDDGRPSQVRLDTAVQGIEGTYIHAVYYPGENQIQTVMQQGELFAKQEQLFSVVATGAASLLTVDMDVQVTMPVPEPMVKMLLNNVLEHLAENLKQRAEQLAAS”, the “soluble on expression in E. coli” value is given as “soluble”. As to “MTAQLQSESTSKIVLVTGGAGYIGSHTVVELIENGYDCVVADNLSNSTYDSVARLEVLTKHHIPFYEVDLCDRKGLEKVFKEYKIDSVIHFAGLKAVGESTQIPLRYYHNNILGTVVLLELMQQYNVSKFVFSSSATVYGDATRFPNMIPIPEECPLGPTNPYGHTKYAIENILNDLYNSDKKSWKFAILRYFNPIGAHPSGLIGEDPLGIPNNLLPYMAQVAVGRREKLYIFGDDYDSRDGTPIRDYIHVVDLAKGHIAALQYLEAYNENEGLCREWNLGSGKGSTVFEVYHAFCKASGIDLPYKVTGRRAGDVLNLTAKPDRAKRELKWQTELQVEDSCKDLWKWTTENPFGYQLRGVEARFSAEDMRYDARFVTIGAGTRFQATFANLGASIVDLKVNGQSVVLGYENEEGYLNPDSAYIGATIGRYANRISKGKFSLCNKDYQLTVNNGVNANHSSIGSFHRKRFLGPIIQNPSKDVFTAEYMLIDNEKDTEFPGDLLVTIQYTVNVAQKSLEIVYKGKLTAGEATPINLTNHSYFNLNKPYGDTIEGTEIMVRSKKSVDVDKNMIPTGNIVDREIATFNSTKPTVLGPKNPQFDCCFVVDENAKPSQINTLNNELTLIVKAFHPDSNITLEVLSTEPTYQFYTGDFLSAGYEARQGFAIEPGRYIDAINQENWKDCVTLKNGETYGSKIVYRFS”, the “soluble on expression in E. coli” value was “soluble”. As to “MTARYIAIDWGSTNLRAWLYQGDHCLESRQSEAGVTRLNGKSPAAVLAEVTTDWREENTPVVMAGMVGSNVGWKVAPYLSVPARFSSIGEQLTSVGDNIWIIPGLCVSHDDNHNVMRGEETQLIGARALAPSSLYVMPGTHCKWVQADSQQINDFRTVMTGELHHLLLNHSLIGAGLPPQENSADAFAAGLERGLNAPAILPQLFEVRASHVLGTLPREQVSEFLSGLLIGAEVASMRDYVTHQHAITLVAGTSLTARYQQAFQAMGCDVAAVAGDTAFQAGIRSIAHAVAN”, the “soluble on expression in E. coli” value is on record as “soluble”. In the case of “MTATASDDEAVTALALSAAKGNGRALEAFIKATQQDVWRFVAYLSDVGSADDLTQETFLRAIGAIPRFSARSSARTWLLAIARHVVADHIRHVRSRPRTTRGARPEHLIDGD”, the “soluble on expression in E. coli” value is listed as “soluble”.
